Starred links: 1 amine or outer side, 2 acyl side, 3 side chain; linkers in the order of their positions; H or OH if unused. Non-standard residues stand in square brackets, D forms with d. Groups on a side chain read outwards from the residue. No end group written: not given here. *: point of attachment. C20 diacid = O=C(O)CCCCCCCCCCCCCCCCCCC(=O)*; C18 diacid = O=C(O)CCCCCCCCCCCCCCCCC(=O)*; γGlu = O=C(O)[C@H](CCC(=O)[*:2])N[*:1]; 4Pal = N[C@@H](Cc1ccncc1)C(=O)O; αMeL = CC(C)C[C@](C)(N)C(=O)O; Orn = NCCC[C@H](N)C(=O)O; AEEA = NCCOCCOCC(=O)O; Aib = CC(C)(N)C(=O)O
T1: human glucose-dependent insulinotropic polypeptide (GIP) receptor (human, UniProt P48546 22-466)
T1 construct: whole, on cells; Assayed as crude membranes of stably transfected CHO cells; also called hGIPR; human GIP receptor
T1 sequence (looked up): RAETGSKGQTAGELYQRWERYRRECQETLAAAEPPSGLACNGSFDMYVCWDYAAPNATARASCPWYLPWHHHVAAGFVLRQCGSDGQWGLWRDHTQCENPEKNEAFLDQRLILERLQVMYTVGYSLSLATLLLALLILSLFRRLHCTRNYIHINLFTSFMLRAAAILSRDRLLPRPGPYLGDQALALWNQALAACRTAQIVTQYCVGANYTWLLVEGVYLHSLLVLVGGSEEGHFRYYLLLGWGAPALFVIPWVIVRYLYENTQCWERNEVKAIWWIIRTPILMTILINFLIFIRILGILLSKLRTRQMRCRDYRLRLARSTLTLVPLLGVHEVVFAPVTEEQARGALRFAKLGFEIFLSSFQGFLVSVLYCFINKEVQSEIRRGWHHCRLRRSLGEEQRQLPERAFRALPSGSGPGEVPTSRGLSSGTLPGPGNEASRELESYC

B1: Example 9 (peptide)
peptide: YXEGTFISDYSILLDKKHQXDFVNWLLAQGPSSGAPPPS
modifications: D-Ala2; K17((2-[2-(2-Amino-ethoxy)-ethoxy]-acetyl)2-(γ-Glu)-CO-(CH2)18-CO2H); Aib20; C-terminal amide
B2: Example 31 (peptide)
peptide: Y[Aib]EGTFISDYSILLDKK([AEEA-AEEA-γGlu-C18 diacid])HQ[Aib]DFVNYLLAAGPSSGAPPPS-NH2
modifications: N-terminus assumed
SMILES: CC[C@H](C)[C@H](NC(=O)[C@H](CO)NC(=O)[C@H](Cc1ccc(O)cc1)NC(=O)[C@H](CC(=O)O)NC(=O)[C@H](CO)NC(=O)[C@@H](NC(=O)[C@H](Cc1ccccc1)NC(=O)[C@@H](NC(=O)CNC(=O)[C@H](CCC(=O)O)NC(=O)C(C)(C)NC(=O)[C@@H](N)Cc1ccc(O)cc1)[C@@H](C)O)[C@@H](C)CC)C(=O)N[C@@H](CC(C)C)C(=O)N[C@@H](CC(C)C)C(=O)N[C@@H](CC(=O)O)C(=O)N[C@@H](CCCCN)C(=O)N[C@@H](CCCCNC(=O)COCCOCCNC(=O)COCCOCCNC(=O)CC[C@H](NC(=O)CCCCCCCCCCCCCCCCC(=O)O)C(=O)O)C(=O)N[C@@H](Cc1c[nH]cn1)C(=O)N[C@@H](CCC(N)=O)C(=O)NC(C)(C)C(=O)N[C@@H](CC(=O)O)C(=O)N[C@@H](Cc1ccccc1)C(=O)N[C@H](C(=O)N[C@@H](CC(N)=O)C(=O)N[C@@H](Cc1ccc(O)cc1)C(=O)N[C@@H](CC(C)C)C(=O)N[C@@H](CC(C)C)C(=O)N[C@@H](C)C(=O)N[C@@H](C)C(=O)NCC(=O)N1CCC[C@H]1C(=O)N[C@@H](CO)C(=O)N[C@@H](CO)C(=O)NCC(=O)N[C@@H](C)C(=O)N1CCC[C@H]1C(=O)N1CCC[C@H]1C(=O)N1CCC[C@H]1C(=O)N[C@@H](CO)C(N)=O)C(C)C
B3: Example 32 (peptide)
peptide: Y[dA]EGTLISDYSILLDKK([AEEA-AEEA-γGlu-C18 diacid])AQ[Aib]DFVNWLLAQGPSSGAPPPS-NH2
modifications: N-terminus assumed
SMILES: CC[C@H](C)[C@H](NC(=O)[C@H](CO)NC(=O)[C@H](Cc1ccc(O)cc1)NC(=O)[C@H](CC(=O)O)NC(=O)[C@H](CO)NC(=O)[C@@H](NC(=O)[C@H](CC(C)C)NC(=O)[C@@H](NC(=O)CNC(=O)[C@H](CCC(=O)O)NC(=O)[C@@H](C)NC(=O)[C@@H](N)Cc1ccc(O)cc1)[C@@H](C)O)[C@@H](C)CC)C(=O)N[C@@H](CC(C)C)C(=O)N[C@@H](CC(C)C)C(=O)N[C@@H](CC(=O)O)C(=O)N[C@@H](CCCCN)C(=O)N[C@@H](CCCCNC(=O)COCCOCCNC(=O)COCCOCCNC(=O)CC[C@H](NC(=O)CCCCCCCCCCCCCCCCC(=O)O)C(=O)O)C(=O)N[C@@H](C)C(=O)N[C@@H](CCC(N)=O)C(=O)NC(C)(C)C(=O)N[C@@H](CC(=O)O)C(=O)N[C@@H](Cc1ccccc1)C(=O)N[C@H](C(=O)N[C@@H](CC(N)=O)C(=O)N[C@@H](Cc1c[nH]c2ccccc12)C(=O)N[C@@H](CC(C)C)C(=O)N[C@@H](CC(C)C)C(=O)N[C@@H](C)C(=O)N[C@@H](CCC(N)=O)C(=O)NCC(=O)N1CCC[C@H]1C(=O)N[C@@H](CO)C(=O)N[C@@H](CO)C(=O)NCC(=O)N[C@@H](C)C(=O)N1CCC[C@H]1C(=O)N1CCC[C@H]1C(=O)N1CCC[C@H]1C(=O)N[C@@H](CO)C(N)=O)C(C)C
B4: Example 24 (peptide)
peptide: Y[Aib]EGTFISDYSI[Aib]LDKK([AEEA-AEEA-γGlu-C18 diacid])HQ[Aib]DFVE[4Pal]LLAGGPSSGAPPPS-NH2
modifications: N-terminus assumed
SMILES: CC[C@H](C)[C@H](NC(=O)[C@H](Cc1ccccc1)NC(=O)[C@@H](NC(=O)CNC(=O)[C@H](CCC(=O)O)NC(=O)C(C)(C)NC(=O)[C@@H](N)Cc1ccc(O)cc1)[C@@H](C)O)C(=O)N[C@@H](CO)C(=O)N[C@@H](CC(=O)O)C(=O)N[C@@H](Cc1ccc(O)cc1)C(=O)N[C@@H](CO)C(=O)N[C@H](C(=O)NC(C)(C)C(=O)N[C@@H](CC(C)C)C(=O)N[C@@H](CC(=O)O)C(=O)N[C@@H](CCCCN)C(=O)N[C@@H](CCCCNC(=O)COCCOCCNC(=O)COCCOCCNC(=O)CC[C@H](NC(=O)CCCCCCCCCCCCCCCCC(=O)O)C(=O)O)C(=O)N[C@@H](Cc1c[nH]cn1)C(=O)N[C@@H](CCC(N)=O)C(=O)NC(C)(C)C(=O)N[C@@H](CC(=O)O)C(=O)N[C@@H](Cc1ccccc1)C(=O)N[C@H](C(=O)N[C@@H](CCC(=O)O)C(=O)N[C@@H](Cc1ccncc1)C(=O)N[C@@H](CC(C)C)C(=O)N[C@@H](CC(C)C)C(=O)N[C@@H](C)C(=O)NCC(=O)NCC(=O)N1CCC[C@H]1C(=O)N[C@@H](CO)C(=O)N[C@@H](CO)C(=O)NCC(=O)N[C@@H](C)C(=O)N1CCC[C@H]1C(=O)N1CCC[C@H]1C(=O)N1CCC[C@H]1C(=O)N[C@@H](CO)C(N)=O)C(C)C)[C@@H](C)CC
B5: Example 83 (peptide)
peptide: Y[Aib]EGTFISDYSI[αMeL]LDEK([AEEA-AEEA-γGlu-C20 diacid])HQ[Aib]DFVE[4Pal]LLATGPSSGAPPPS-NH2
modifications: N-terminus assumed
SMILES: CC[C@H](C)[C@H](NC(=O)[C@H](Cc1ccccc1)NC(=O)[C@@H](NC(=O)CNC(=O)[C@H](CCC(=O)O)NC(=O)C(C)(C)NC(=O)[C@@H](N)Cc1ccc(O)cc1)[C@@H](C)O)C(=O)N[C@@H](CO)C(=O)N[C@@H](CC(=O)O)C(=O)N[C@@H](Cc1ccc(O)cc1)C(=O)N[C@@H](CO)C(=O)N[C@H](C(=O)N[C@@](C)(CC(C)C)C(=O)N[C@@H](CC(C)C)C(=O)N[C@@H](CC(=O)O)C(=O)N[C@@H](CCC(=O)O)C(=O)N[C@@H](CCCCNC(=O)COCCOCCNC(=O)COCCOCCNC(=O)CC[C@H](NC(=O)CCCCCCCCCCCCCCCCCCC(=O)O)C(=O)O)C(=O)N[C@@H](Cc1c[nH]cn1)C(=O)N[C@@H](CCC(N)=O)C(=O)NC(C)(C)C(=O)N[C@@H](CC(=O)O)C(=O)N[C@@H](Cc1ccccc1)C(=O)N[C@H](C(=O)N[C@@H](CCC(=O)O)C(=O)N[C@@H](Cc1ccncc1)C(=O)N[C@@H](CC(C)C)C(=O)N[C@@H](CC(C)C)C(=O)N[C@@H](C)C(=O)N[C@H](C(=O)NCC(=O)N1CCC[C@H]1C(=O)N[C@@H](CO)C(=O)N[C@@H](CO)C(=O)NCC(=O)N[C@@H](C)C(=O)N1CCC[C@H]1C(=O)N1CCC[C@H]1C(=O)N1CCC[C@H]1C(=O)N[C@@H](CO)C(N)=O)[C@@H](C)O)C(C)C)[C@@H](C)CC
B6: Example 80 (peptide)
peptide: Y[Aib]EGTFISDYSI[αMeL]LD[Orn]K([AEEA-AEEA-γGlu-C20 diacid])HQ[Aib]DFVE[4Pal]LLETGPSSGAPPPS-NH2
modifications: N-terminus assumed
SMILES: CC[C@H](C)[C@H](NC(=O)[C@H](Cc1ccccc1)NC(=O)[C@@H](NC(=O)CNC(=O)[C@H](CCC(=O)O)NC(=O)C(C)(C)NC(=O)[C@@H](N)Cc1ccc(O)cc1)[C@@H](C)O)C(=O)N[C@@H](CO)C(=O)N[C@@H](CC(=O)O)C(=O)N[C@@H](Cc1ccc(O)cc1)C(=O)N[C@@H](CO)C(=O)N[C@H](C(=O)N[C@@](C)(CC(C)C)C(=O)N[C@@H](CC(C)C)C(=O)N[C@@H](CC(=O)O)C(=O)N[C@@H](CCCN)C(=O)N[C@@H](CCCCNC(=O)COCCOCCNC(=O)COCCOCCNC(=O)CC[C@H](NC(=O)CCCCCCCCCCCCCCCCCCC(=O)O)C(=O)O)C(=O)N[C@@H](Cc1c[nH]cn1)C(=O)N[C@@H](CCC(N)=O)C(=O)NC(C)(C)C(=O)N[C@@H](CC(=O)O)C(=O)N[C@@H](Cc1ccccc1)C(=O)N[C@H](C(=O)N[C@@H](CCC(=O)O)C(=O)N[C@@H](Cc1ccncc1)C(=O)N[C@@H](CC(C)C)C(=O)N[C@@H](CC(C)C)C(=O)N[C@@H](CCC(=O)O)C(=O)N[C@H](C(=O)NCC(=O)N1CCC[C@H]1C(=O)N[C@@H](CO)C(=O)N[C@@H](CO)C(=O)NCC(=O)N[C@@H](C)C(=O)N1CCC[C@H]1C(=O)N1CCC[C@H]1C(=O)N1CCC[C@H]1C(=O)N[C@@H](CO)C(N)=O)[C@@H](C)O)C(C)C)[C@@H](C)CC

Legend:
[1] = target: T1, human glucose-dependent insulinotropic …; assay: SPA, displacement of [125I]-GIP from hGIPR membranes, 0.1% bacitracin
Method: The binding buffer contains 25 mM HEPES, pH 7.4, 2.5 mM CaCl₂, 1 mM MgCl₂, 0.1% (w/v) bacitracin, 0.003% (w/v) TWEEN®-20, and Roche Complete™ Protease Inhibitors without EDTA. […] Plates are sealed and mixed on a plate shaker (setting 6) for 1 minute and read with a PerkinElmer Trilux MicroBeta® scintillation counter after 2.5 to 12 hours of incubation/settling time at room temperature.
(§1) Data are analyzed using four-parameter (curve maximum, curve minimum, […], Hill slope) nonlinear regression routines (Genedata Screener, version 12.0.4, Genedata AG, Basal, Switzerland). […] Values for Kᵢ are reported as the geometric mean, with error expressed as the standard error of the mean (SEM) and n is equal to the number of independent replicates (determined in assays performed on different days). Geometric Means are calculated as follows: […]

human GLP-1 receptor = target: T2, human GLP-1 receptor (human, UniProt P43220 24-463); assay: SPA, displacement of [125I]-GLP-1 from hGLP-1R membranes, 0.1% bacitracin
T2 construct: whole, on cells; Assayed as crude membranes of stably transfected HEK293 cells; also called hGLP1R; hGLP-1R
Method: The binding buffer contains 25 mM HEPES, pH 7.4, 2.5 mM CaCl₂, 1 mM MgCl₂, 0.1% (w/v) bacitracin, 0.003% (w/v) TWEEN®-20, and Roche Complete™ Protease Inhibitors without EDTA.
as §1

Binder	Ki [1]	Ki (human GLP-1 receptor)
B1	0.11 nM	168 nM
B2	0.0473 nM	266 nM
B3	0.0343 nM	85.2 nM
B4	0.254 nM	729 nM
B5	0.116 nM	452 nM
B6	0.0828 nM	–
